In US20240238433A1 (published 2024):

T1: In-house produced Avi-tagged CEACAM6 (UniProt P40199 35-320)
T1 chain: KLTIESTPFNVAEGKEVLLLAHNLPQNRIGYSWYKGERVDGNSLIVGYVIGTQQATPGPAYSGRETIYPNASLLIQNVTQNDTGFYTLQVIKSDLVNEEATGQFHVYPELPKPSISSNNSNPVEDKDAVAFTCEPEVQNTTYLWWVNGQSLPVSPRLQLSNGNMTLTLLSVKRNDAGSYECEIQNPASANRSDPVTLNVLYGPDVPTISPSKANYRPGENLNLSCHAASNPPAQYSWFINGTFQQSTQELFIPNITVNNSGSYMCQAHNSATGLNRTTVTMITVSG

T2: In-house produced Avi-tagged N256A mutated CEACAM6 (UniProt P40199 35-320)
T2 chain: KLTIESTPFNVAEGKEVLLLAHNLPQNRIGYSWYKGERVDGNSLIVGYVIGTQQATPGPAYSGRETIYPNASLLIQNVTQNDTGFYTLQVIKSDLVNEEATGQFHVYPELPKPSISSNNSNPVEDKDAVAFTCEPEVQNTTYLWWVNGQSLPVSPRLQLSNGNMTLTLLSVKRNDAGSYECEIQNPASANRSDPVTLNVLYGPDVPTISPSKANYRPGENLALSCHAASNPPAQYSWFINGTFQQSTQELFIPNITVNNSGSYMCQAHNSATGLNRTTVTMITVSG

T3: In-house produced Avi-tagged N256A mutated CEACAM5 (UniProt P06731 35-685)
T3 chain: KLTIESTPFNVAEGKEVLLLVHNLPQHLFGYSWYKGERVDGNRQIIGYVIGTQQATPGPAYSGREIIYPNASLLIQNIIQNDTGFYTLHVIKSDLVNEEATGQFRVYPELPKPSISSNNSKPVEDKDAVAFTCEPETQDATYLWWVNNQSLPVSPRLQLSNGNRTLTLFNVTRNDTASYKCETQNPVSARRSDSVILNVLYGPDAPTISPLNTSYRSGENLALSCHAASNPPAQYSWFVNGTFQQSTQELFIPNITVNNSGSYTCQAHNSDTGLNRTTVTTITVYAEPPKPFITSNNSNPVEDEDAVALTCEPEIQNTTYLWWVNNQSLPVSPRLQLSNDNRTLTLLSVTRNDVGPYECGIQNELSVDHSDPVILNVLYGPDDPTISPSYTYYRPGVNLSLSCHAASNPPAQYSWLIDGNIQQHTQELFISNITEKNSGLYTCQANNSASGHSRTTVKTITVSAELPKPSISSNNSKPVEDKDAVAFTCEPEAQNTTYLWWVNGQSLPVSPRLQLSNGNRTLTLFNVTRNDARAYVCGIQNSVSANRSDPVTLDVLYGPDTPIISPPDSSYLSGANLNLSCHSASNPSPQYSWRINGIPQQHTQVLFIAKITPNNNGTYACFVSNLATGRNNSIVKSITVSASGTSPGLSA

T4: In-house produced Avi-tagged CEACAM5 (UniProt P06731 35-685)
T4 chain: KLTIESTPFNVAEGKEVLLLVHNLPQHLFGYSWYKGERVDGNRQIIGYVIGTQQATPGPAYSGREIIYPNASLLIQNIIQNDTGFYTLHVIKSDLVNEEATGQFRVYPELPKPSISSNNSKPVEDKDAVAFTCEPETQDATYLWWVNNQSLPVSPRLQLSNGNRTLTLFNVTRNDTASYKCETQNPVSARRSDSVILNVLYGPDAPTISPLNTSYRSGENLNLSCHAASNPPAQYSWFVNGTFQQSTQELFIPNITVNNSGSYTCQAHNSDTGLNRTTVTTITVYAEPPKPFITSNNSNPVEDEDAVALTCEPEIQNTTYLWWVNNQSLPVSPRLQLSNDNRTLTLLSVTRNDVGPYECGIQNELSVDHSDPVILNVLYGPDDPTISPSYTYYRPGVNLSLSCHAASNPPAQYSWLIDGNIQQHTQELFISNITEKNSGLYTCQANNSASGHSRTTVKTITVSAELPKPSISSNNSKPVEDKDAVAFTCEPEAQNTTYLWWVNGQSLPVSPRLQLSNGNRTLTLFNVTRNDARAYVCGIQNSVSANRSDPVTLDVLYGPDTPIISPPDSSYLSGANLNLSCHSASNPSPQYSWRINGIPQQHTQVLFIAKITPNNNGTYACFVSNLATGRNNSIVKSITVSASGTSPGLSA


Assays:
Test in all cases: BLI
[1] = target: CEACAM5 N256A (UniProt P06731)
[2] = target: CEACAM5 (UniProt P06731)
[3] = target: CEACAM6 N256A (UniProt P40199)
[4] = target: CEACAM6 (UniProt P40199)
[5] = target: T1, In-house produced Avi-tagged CEACAM6
[6] = target: T2, In-house produced Avi-tagged N256A …
[7] = target: T3, In-house produced Avi-tagged N256A …
[8] = target: T4, In-house produced Avi-tagged CEACAM5

Kd [1]	Kd [2]	Kd [3]	Kd [4]	Kd [5]	Kd [6]	Kd [7]	Kd [8]	Molecule
1.27 nM	1.37 nM	–	–	–	–	–	–	Tusamitamab
0.401 nM	0.321 nM	0.217 nM	0.126 nM	–	–	–	–	NEO-201
–	–	–	–	71.5 nM	3180 nM	> 200 nM	63.8 nM	AB1 antibody (antibody, V domains shown) VH: QVQLVQSGAEVKKPGASVKVSCKASGNTFTSYVMHWVRQAPGQGLEWMGYINPYNDGTKYNEKFKGRVTMTRDTSTSTVYMELSSLRSEDTAVYYCARSTARATPYFYAMDYWGQGTLVTVSS VL: DIVMTQSPDSLAVSLGERATINCKSSQSLLWSVNQNSYLSWYQLKPGQPPKLLLYGASIRESGVPDRFSGSGSGTDFTLTISSLQAEDVAVYYCQHNHGSFLPYTFGGGTKLEIKR
–	–	–	–	1.57 nM	1.61 nM	0.555 nM	0.775 nM	EBC-123 (antibody, V domains shown) VH: QVQLVQSGAEVKKPGASVKVSCKASGNTFTSYVMHWVRQAPGQGLEWMGYINPYNDGTKYNEKFKGRVTMTRDTSTSTVYMELSSLRSEDTAVYYCARSTARATPYFYAMDYWGQGTLVTVSS VL: DIVMTQSPDSLAVSLGERATINCKSSQSLLWSVNQNSYLSWYQLKPGQPPKLLLYGASIRESGVPDRFSGSGSGTDFTLTISSLQAEDVAVYYCQHNHGSFLPYTFGGGTKLEIKR
